Measurements reported in the nanobody polyreactivity screen of Harvey et al. (2022).

Test: yeast display, Sf9 membrane polyspecificity reagent, FACS + sequencing; frameworks hold sequencing errors
Outline: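 A nanobody's polyreactivity label depends on the gate it was sorted from. Yeast display cells were stained with 10% biotinylated, detergent-solubilized Sf9 membrane reagent for 1 hour at 4 °C, enriched on streptavidin microbeads and sorted by FACS. The low and high (top ~1%) gates were set on anti-HA fluorescence for expression and streptavidin fluorescence for reagent binding.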

Sequence | polyreactivity (PSR sort gate)
QVQLVESGGGLVQAGGSLRLSCAASGFTFYRNAMGWYRQAPGKERELVAAINYSGGSTYFADSVKGRFTISRDNAKNTVYLQMNSLKPEVTAVYYCAVPYNYYRYHYSGYDYWGQGTQVTVSS | high polyreactivity
QVQLVESGGGLVQAGGSLRLSCAASGFTFYRNAMGWYRQAPGKERELVAAISWRGSSTYYADSVKGRFTISRDNAKNTVYLQMNSLKPEDTAVYYCATEYPYWYYYRMDYWGQGTQVTVSS | high polyreactivity
QVQLVESGGGLVQAGGSLRLSCAASGFTFYRNAMGWYRQAPGKERELVASISRSGGSTYYADSVKGRFTNSRDNAKNTVYLQMNSLKPEDTAVYYCAADLWWIYPHKYYYWGQGTQVTVSS | high polyreactivity
QVQLVESGGGLVQAGGSLRLSCAASGFTFYRYAMGWYRQAPGKEREFVAVINIRGSTTYYADSVKGRFTISRDNAKNTVYLQMNSLKPEDTAVYYCARRYRGPYYSLPRRKEFDYWGQGTQVTVSS | high polyreactivity
QVQLVESGGGLVQAGGSLRLSCAASGFTFYRYAMGWYRQAPGKERELVAAISSGGRTTYADSVKGRFTISRDNAKNTVYLQMNSLKPEDTAVYYCVFVYVYDYYYWGQGTQVTVSS | high polyreactivity
QVQLVESGGGLVQAGGSLRLSCAASGFTFYRYAMGWYRQAPGKERELVAAISTSGGSTYYADSVKGRFTISRDNAKNTVYLQMNSLKPEDTAVYYCAAELLVYYWGYYYELLDYWGQGTQVSVSS | high polyreactivity
QVQLVESGGGLVQAGGSLRLSCAASGFTFYRYAMGWYRQAPGKERELVATISASGGSTYYADSVKGRFTISRDNAKNTVYLQMNSLKPEDTAVYYCAVRYKSWYGFNYWGQGTQVTVSS | high polyreactivity
QVQLVESGGGLVQAGGSLRLSCAASGFTFYRYAMGWYRQAPGKERELVAVISSSGGRTYYADSVKGRFTISRDNAKNTVYLQMNSLKPEDTAVYYCAAVGAVRREDYWGQGTQVTVSS | high polyreactivity
QVQLVESGGGLVQAGGSLRLSCAASGFTFYRYAMGWYRQAPGKERQLVAAISRRGGSTDYADSVKGRFTISRDNAKNTVYLQMNRLKPEDTAVYYCAASYSRGVGKLGYWGQGTQVTVSS | high polyreactivity
QVQLVESGGGLVQAGGSLRLSCAASGFTFYRYTMGWYRQAPGKERELVAAISSGDSTYYADSVKGRFTISRDNAKNTVYLQMNSLKPEDTAVYYCAARQYSRGAIVYYWGQGTQVTVSS | high polyreactivity
QVQLVESGGGLVQAGGSLRLSCAASGFTFYRYTMGWYRQAPGKERELVAVISSGGRTNYADSVKGRFTISRDNAKNTVYLQMNSLKPEDTAVYYCATRYPGYRDGYDYWGQGTQVSVSS | high polyreactivity
QVQLVESGGGLVQAGGSLRLSCAASGFTFYSNAMGWYRQAPGKERELVAAISGSGGRTYYADSVKGRFTISRDNAKNTVYLQMNSLKPEDTAVYYCAAKFTTGYYYGVPRDYWGQGTQVTVSS | high polyreactivity
QVQLVESGGGLVQAGGSLRLSCAASGFTFYSNAMGWYRQAPGKERELVATIRYRGGSTYADSVKGRFTISRDNAKNTVYLQMNSLKPEDTAVYYCAARKYRSFRQRTGDYWGQGTQVTVSS | high polyreactivity
QVQLVESGGGLVQAGGSLRLSCAASGFTFYSYALGWYIQAPGKERELVAAISRGGSTTYADSVKGRFTISRDNAKNTVYLQMNSLKPEDTAVYYCAARYRYRYTPYRYDYWGQGTQVTVSS | high polyreactivity
QVQLVESGGGLVQAGGSLRLSCAASGFTFYSYAMGWYRQAPGKEREFVAAISGSGTITFYADSVKGRFTISRDNAKNTVYLQMNSLKPEDTAVYYCNADKYYRWSSPRYDYWGQGTQVTVSS | low polyreactivity
QVQLVESGGGLVQAGGSLRLSCAASGFTFYSYAMGWYRQAPGKERELVAAISWSGTRTYYADSVKGRFTISRDNAKNTVYLQMNSLKPEDTAVFYCAARGYRYGYGYWGQGTQVTVSS | high polyreactivity
QVQLVESGGGLVQAGGSLRLSCAASGFTFYSYVMGWYRQAPGKERELVAAISWSGGRTNYADSVKGRFTISRDNAKNTVYLQMNSLKPEDTAVYYCNAPFRLRYRVDYWGQVTQVTVSS | high polyreactivity
QVQLVESGGGLVQAGGSLRLSCAASGFTFYTNAMGWYRQARGQERELVAAISSSGGRTYYADSVKGRFTISRDNAKNTVYLQMNSLKPEDTAVYYCNAYFTRSFSYIYWGQGTQVTVSS | high polyreactivity
QVQLVESGGGLVQAGGSLRLSCAASGFTFYTYAMGWYRQAPGKERELVATISGSGGDTNYADSVKGRFTISRDNEKNTVYLQMDSLKPEDTAVYYCAAEPDATTYSDPYDYWGQGTQVTVSS | low polyreactivity
QVQLVESGGGLVQAGGSLRLSCAASGFTFYTYTMGWYRQAPGKERELVAVISRSGGSTYYADSVKGLFTISRDNAKNTVYLQMNSLNPEDTAVYYCNAGYWRFIDSFDYWGQRTQVTVSS | high polyreactivity
QVQLVESGGGLVQAGGSLRLSCAASGFTFYVYTMGWYRQAPGKERELVASISGGRTYYADSVKGRFTISRDNAKNTVYLQMNSLKPEDTAVYYCAAVPYPSYYDTRYDYWGPGTQVTVSS | low polyreactivity

Sequence | polyreactivity (PSR sort gate)
QVQLVESGGGLVQAGGSLRLSCAASGFTFYWYTMGGYRQAPGKDRELVAAISGSGGRTYYADSVKGRFTISRDNAKKTVYLQMNSLKPEDTAVYYCAARGRYAYPRYGYYPVNYWGQVTQVTVSS | high polyreactivity
QVQLVESGGGLVQAGGSLRLSCAASGFTFYYNAMGWYRQAPGKERELVAAIYSDGSTYYADSVKGRFTISRDNAKNTFYLQMNSLKAEDTAVYYCAVRKAYQYGFYYWGQGTQVTVSS | low polyreactivity
QVQLVESGGGLVQAGGSLRLSCAASGFTFYYNAMGWYRQAPGKERELVATISGSGGRTYYADSVKGRFTISRDNAKNTVYLQMNSLKPEDTAVYYCAARYVWSRYGYWGQGTQVTVSS | high polyreactivity
QVQLVESGGGLVQAGGSLRLSCAASGFTFYYYAMGWSRQAPGKERELVAAISQNGGRTYYADSVKGRFTISRDNAKNTVYLQMNSLKPEDTAVYYCAKASGYSSYGYWGQGTQVTVSS | high polyreactivity
QVQLVESGGGLVQAGGSLRLSCAASGFTFYYYAMGWYRQAPGKERELVAAISRGGGNTYYADSVKGRFTISRDNAKNTVYLQMNSLKPEDTAVYYCAARRPVYRIYGDRGRWYNYWGQGTQVTVSS | high polyreactivity
QVQLVESGGGLVQAGGSLRLSCAASGFTFYYYAMGWYRQAPGKERELVAAISSRGGNTYYADSVKGRFTISRDNAKNTVYLQMNSLKPEDTAVYYCASVPLKYDYWGQGTQVTVSS | high polyreactivity
QVQLVESGGGLVQAGGSLRLSCAASGFTFYYYAMGWYRQAPGKERELVAAITSGGSTYYADSVKGRFTISRDNAKNTVYLQMNSLKPEDTAVYYCNTVHYNLDYEYDYWGQGTQGTVSS | low polyreactivity
QVQLVESGGGLVQAGGSLRLSCAASGFTFYYYAMGWYRQAPGKERELVAAITSSGDSTFYADSVKGRFTISRDNAKNTVSLQMNSLKPEDTAVYYCAADRFQGRDDYWGQGTQGTVSS | high polyreactivity
QVQLVESGGGLVQAGGSLRLSCAASGFTFYYYAMGWYRQAPGKERELVATISSSGGSTHYADSVKGRFTISRDNAKNTVYLQMNSLKPEDTAVYYCAADSYWDQSHIRDYWGQGTQVTVSS | low polyreactivity
QVQLVESGGGLVQAGGSLRLSCAASGFTFYYYTMGWYIKAPGKERELVAAITRSGGRTYYADSVKGRFTISRDNAKNTVYLQMNSLKPEDTAVYYCAARTPFYNSYRRDYWGQGTQVTVSS | high polyreactivity
QVQLVESGGGLVQAGGSLRLSCAASGFTFYYYTMGWYRQAPGKERELVAVITLSDGSTNYADSVKGRFTISRDNAKNTVYLQMNSLKPEDTAVYYCDAKYVDYGYHGYDYWGQGTQVTVSS | low polyreactivity
QVQLVESGGGLVQAGGSLRLSCAASGFTFYYYTMGWYRQAPVKERELVAGITSRGGSTTYADSVKARFTISLDNAKNTVYLQMNSLKPEDTAVYYCNPLWAVHSGYDYLGQGTQVTVSS | high polyreactivity
QVQLVESGGGLVQAGGSLRLSCAASGFTIAKYAMGWYRQAPGKERELVAAISSSGGRTYYADSVKGRFTISRDIAKNTVYLQMNSLNPEDTAVYYCAADFSGPFDYWGQGTQVSVSS | high polyreactivity
QVQLVESGGGLVQAGGSLRLSCAASGFTIERYAMGWYRQAPGKERELVAVISTSGGSTYYADSVKGRFTISRDNAKNTVYLQMNSLKPEDTAVYYCAKDGSSRGDYHFGWGYYYWGQGSQVTVSS | low polyreactivity
QVQLVESGGGLVQAGGSLRLSCAASGFTIGDYAMGWYRQAPGKERELVAAITYSGGSTYYADSVKGRFTISRDNAKNTVYLQMNSLKPEDTAVYYCNADYASQSGYDYWGQGTQVTVSS | low polyreactivity
QVQLVESGGGLVQAGGSLRLSCAASGFTIGKNAMGWYRQAPGKERELVAAISLSGGRTYADSVKGRFTISRDNAKNTVYLQMNSLKPEDTAVYYCAANRYPKFYWGQGTQVTVSS | high polyreactivity
QVQLVESGGGLVQAGGSLRLSCAASGFTIRRYAMGWYRQAPGKERELVAAITTGGSTYYADSVKGRFTISRDNAKNTVYLQMNSLKPEDTAVYYCAALYPYKQYRLGYDSWGQGTQVTVSS | high polyreactivity
QVQLVESGGGLVQAGGSLRLSCAASGFTIRSYAMGWYRQAPGKERELVAGITWRSSSTYYADSVKGRFTISRDNAKNTVYLQMNSLKPEDTAVYYCAARAVYRFNYWGQGTQVTVSS | high polyreactivity
QVQLVESGGGLVQAGGSLRLSCAASGFTIRWYAMGWYRQAPGKERELVAAISSGGGSTYYADSVKGRFTISRDNAKNTVYLQMNSLKPEDTAVYYCNARIQYFEYRGYEYWGQGTQVTVSS | high polyreactivity
QVQLVESGGGLVQAGGSLRLSCAASGFTIRWYTMGWYRQAPWKERELVATINWSGGSTYYADSVKGRFTISRDNAKNTVYLQMNSLIPEDTAVYYCARRQSGTIKTRMDYWGQGTQVTVSS | high polyreactivity
